Laboratory results as given in article PMC8897509 (Nature Communications, 2022).
Positions count from the first letter of the chain named. Blank lines part the entries; values can stand above or below the binder they belong to.

Tests used:
[1] = target: T1, ubiquitin (UniProt P0CG48 1-76); experiment: crystal structure; UbArk2C fusion alone, 2.5 Å, PDB 7R70; crystals from 1.6 M Na3Citrate, 16 °C; two copies in the asymmetric unit; conditions: both partners purified
T1 construct: ubiquitin, the mature protein; cloned into pET-3a, expressed untagged; Some pull-downs used a Cy3-labelled variant with an added N-terminal Met-Cys; also called Ub^R; Ub^D; source: E. coli BL21 (DE3), purified (HiTrap SP HP, Superdex 75)

[2] = target: T1, ubiquitin; experiment: pull-down; GST-Ark2C proteins immobilised on Glutathione Sepharose mixed with ubiquitin; PBS pH 7.4, 0.2% Tween 20, 2 mM DTT, 4 °C, 30 min; washed four times with PBS; conditions: both partners purified

- binding result [1]: binds
B1: Ark2C RING domain (residues 255-346), as it stands in the UbArk2C fusion (domain or fragment, human, UniProt Q6ZSG1 255-346, looked up)
chain: GAVQNTIERFTFPHKYKKRRPQDGKGKKDEGEESDTDEKCTICLSMLEDGEDVRRLPCMHLFHQLCVDQWLAMSKKCPICRVDIETQLGADS
notes: Ark2C (RNF165), human, RING domain, residues 255-346; Used for the pair rows of the Ark2C part of the fusion m2 (structures and cross-links); also called RNF165; source: E. coli BL21 (DE3), purified, as part of the UbArk2C fusion

- binding result [2]: binds
B2: GST-Ark2C^KK/AA (Lys271 and Lys272 to alanine) (domain or fragment, human, UniProt Q6ZSG1 255-346, looked up)
chain: B1 chain with K17A, K18A
notes: Ark2C (RNF165), human, RING domain, residues 255-346; The functional row uses this molecule, although the activity assays were done with the protein after cleavage of GST; source: E. coli BL21 (DE3), immobilised on Glutathione Sepharose resin; not shown: GST, N-terminal, kept

- binding result [2]: binds
B3: GST-Ark2C-ΔAcidic (Δ283-291) (domain or fragment, human, UniProt Q6ZSG1 255-346, looked up)
chain: GAVQNTIERFTFPHKYKKRRPQDGKGKKEKCTICLSMLEDGEDVRRLPCMHLFHQLCVDQWLAMSKKCPICRVDIETQLGADS
notes: Ark2C (RNF165), human, RING domain, residues 255-346, without most of the acidic residues of the β3-RING loop; source: E. coli BL21 (DE3), immobilised on Glutathione Sepharose resin; not shown: GST, N-terminal, kept
